Test results: patent US10543284B2, “Anti-c-Met antibody and anti-c-Met antibody-cytotoxic drug conjugate and pharmaceutical use thereof” (Suzhou Suncadia Biopharmaceuticals Co., Ltd., priority 2015, dated 2020)

Experiments:
H441 cells = test: Agonist test: H441 cell migration; assay type: cell-based, human; conditions: Antibody 20 μg/ml; migration affected by HGF (200 ng/ml) set as 100%
Text: If anti c-Met antibodies have agonist activity, the migration ability of cells could be affected. The H441 cell line expressing c-Met is used in the invention to evaluate the ability of c-Met antibodies to affect cell migration. H441 cells (ATCC, Cat No.: HTB-174) were resuspended to 500,000 cells/ml in RPMI 1640 medium (GIBCO, Cat No.: 11835-030) which contains 10% (v/v) FBS (GIBCO, Cat No.: 10099-141) and penicillin-streptomycin (GIBCO, Cat No.: 15070-063). The resuspended H441 cells were added to a 12-well culture plate (Costar, Cat No. 3513) at 1 ml/well, and were cultured for 3 days at 37° C. in 5% CO2. Cells were washed twice with PBS, and RPMI 1640 medium containing 0.5% FBS was added, and the plate was cultured for 16 hours at 37° C. in 5% CO2. The bottom of each well was scratched with 5 ml tips, and the plate was washed once with medium containing low concentration of FBS, and 1 ml of RPMI 1640 medium containing a low concentration of serum was added. The plate was marked, photos were taken for randomly selected scratch areas under an inverted microscope at 4× magnification. This time was set as the starting point. […] The percentage of cell migration was measured as the migration distance relative to the starting point divided by the migration distance of the test group relative to the starting point, and then multiplied by 100.

[1] = system: MKN45 cells expressing c-Met; test: Endocytosis of anti c-Met antibody in MKN45 cells (FACS); assay type: cell-based, human; conditions: 10 μg/ml
Procedure: Antibodies of the invention could bind to human c-Met, have very good in vitro activity, and inhibit tumor activity in vivo. […] In order to detect whether the antibody could be taken up into the cell along with human c-Met once bound to human c-Met, the human gastric cancer cell line MKN45 (JCRB, Cat No.: JCRB0254) expressing c-Met was used for evaluation. […] The plate was incubated at 4° C. for 1 hour. FACS buffer (phosphate buffer solution including 2.5% fetal bovine serum; Hyclone, Cat: SH30256.01B) was added, and the plate was centrifuged at 4° C., 1300 rpm for 4 minutes. The supernatant was discarded, and this procedure was repeated three times. 100 μl secondary antibody solution (Fluorescence labeled goat anti mouse secondary antibodies at 1:200 dilution, Biolegend, Cat No. 405307; Fluorescence labeled anti-human secondary antibody at 1:30 dilution, Biolegend, Cat No. 409304) was added into each well, and the plate was incubated at 4° C. for 1 hour. FACS buffer was added and the plate was centrifuged at 4° C., 1300 rpm for 4 minutes. The supernatant was discarded, and this procedure was repeated three times. […] FACS buffer was added and the plate was centrifuged at 4° C., 1300 rpm for 4 minutes. The supernatant was discarded, and this procedure was repeated three times. 200 μl Stripping buffer (0.05 M glycine, pH 3.0; 0.1 M NaCl, mixed in accordance with 1:1 (v/v)) was added to each well. The cells were resuspended and were incubated for 7 minutes at room temperature. The cells were centrifuged at room temperature at 1300 rpm for 4 minutes, and the supernatant was discarded. 200 μl neutralizing wash buffer (0.15M trihydroxymethyl aminomethane, pH 7.4) was added to each well, the cells were resuspended and centrifuged at room temperature at 1300 rpm for 4 minutes, and the supernatant was discarded. 200 μl FACS buffer was added, and the cells were resuspended. Samples were prepared and detected by flow cytometry (BD FACS Calibur). Endocytosis of c-Met antibody %=(intensity of fluorescence at various time points−average intensity of fluorescence at time 0)/average intensity of fluorescence at time 0.

[2] = system: human gastric cancer MKN45 cell model; test: MKN45 subcutaneous xenograft in BALB/c nude mice (Example 10); assay type: in vivo; conditions: 5 mg/kg antibody, terminated at day 25
Procedure: The human gastric cancer MKN45 cell model, obtained by subcutaneous xenograft into BALB/c nude mice, was used to evaluate the antitumor activity of the antibodies.
MKN45 cells were cultured in a monolayer in RPMI-1640 medium (10%/FBS) at 37° C. in 5% CO2. The cells were counted and collected during the logarithmic phase. The cells were resuspended in PBS to an appropriate concentration, and 0.1 ml 3×10^6 cells were subcutaneously injected into the right wing of mice (BALB/c nude mouse, female, 10-week old, 22-28 g, from Shanghai SLAC experimental animal ltd. Licence No. 2007000548777; Environment: SPF grade). When the tumors' average volume reached 114 mm^3, the tumors' weights and volumes were measured, and mice were then separated into groups for treatment. The control group was treated with PBS, and the antibody therapy group was treated with 5 mg/kg antibody of the invention, and the frequency was once a week and twice per time. The tumors' volumes and weights were measured twice a week, and the experiment was terminated at day 25. The formula for calculating tumor size was: tumor volume (mm^3)=0.5×(tumor length×tumor diameter^2).

[3] = LC-MS analysis of deamination (biophysical stability); assay type: physicochemical; conditions: Proportion of deamination molecules; 0.66-1.0% is within background
Procedure: To evaluate the biophysical stability of the antibodies of the invention, such as the presence of glycosylation and deamination and stability, LC-MS analysis was used.
The molecular weight of the heavy and light chains was detected by LC-MS to analyze glycosylation. Deamination was analyzed by LC-MS at 4° C. for a long time (at least 3 months), or at 40° C. for 21 days under an accelerated condition. Samples treated with different conditions were diluted to 2 mg/ml with pH7.2 Tris-HCl, and added into 10 mM TCEP and 6M urea (AMRESCO, Cat #0378)3, then the samples were incubated for 20 minutes at […]. IAA(Sigma-Aldrich, Cat # I1149) with a final concentration of 20 mM was added and was incubated for 15 minutes in darkness to protect the sulfhydryl group. The pH was adjusted using pH7.2 Tris-HCl, and protease (Sigma-Aldrich, Cat # T6567) was added at a proportion by weight of 10:1 (protein: enzyme). The samples were incubated at 37° C. for 25 minutes, and then formic acid with a final concentration of 0.1% (Fluca, Cat #94318) was added to terminate the reactions. Samples were centrifuged and analyzed by LC-MS.
BiopharmaLynx was used to analyze the presence of deamination. […] The peak area was obtained by integration, and the percentages of deamination and oxidation were calculated.

B1: Ab-9: humanized anti c-Met antibody: heavy chain sequence of SEQ ID NO: 23 and light chain sequence of SEQ ID NO: 26 (antibody)
heavy: QVTLKESGPVLVKPTETLTLTCTVSGFSLPNYGVHWVRQPPGKALEWLAVIWSGGSTNYAAAFVSRLRISKDTSKSQVVFTMNNMDPVDTATYYCARNHDNPYNYAMDYWGQGTTVTVSSASTKGPSVFPLAPCSRSTSESTAALGCLVKDYFPEPVTVSWNSGALTSGVHTFPAVLQSSGLYSLSSVVTVPSSNFGTQTYTCNVDHKPSNTKVDKTVERKCCVECPPCPAPPVAGPSVFLFPPKPKDTLMISRTPEVTCVVVDVSHEDPEVQFNWYVDGVEVHNAKTKPREEQFNSTFRVVSVLTVVHQDWLNGKEYKCKVSNKGLPAPIEKTISKTKGQPREPQVYTLPPSREEMTKNQVSLTCLVKGFYPSDIAVEWESNGQPENNYKTTPPMLDSDGSFFLYSKLTVDKSRWQQGNVFSCSVMHEALHNHYTQKSLSLSPGK
light: DIVLTQSPASLAVSPGQRATITCRANKSVSTSTYNYLHWYQQKPGQPPKLLIYLASNLASGVPARFSGSGSGTDFTLTINPVEANDTANYYCQHSRDLPPTFGQGTKLEIKRTVAAPSVFIFPPSDEQLKSGTASVVCLLNNFYPREAKVQWKVDNALQSGNSQESVTEQDSKDSTYSLSSTLTLSKADYEKHKVYACEVTHQGLSSPVTKSFNRGEC
modifications: Ab-9 heavy chain; Ab-9 light chain
In the case of B1, the “H441 migration (%)” value (H441 cells) is reported as 53%, the “endocytosis % 0 h” value ([1]; 0 h) is reported as 0% and the “endocytosis % 0.5 h” value ([1]; 0.5 h) is reported as 26%. For the same molecule, the “endocytosis % 1 h” value ([1]; 1 h) was 32%, the “endocytosis % 2 h” value ([1]; 2 h) was 32% and the “endocytosis % 4 h” value ([1]; 4 h) was 31%. The inhibition rate [2] was 56% and the “Analysis of deamination 4° C., 3.5 months” value [3] was 0.66%.
